Publication PMC10799292, “The Role of β-Defensin 1 Against Porphyromonas gingivalis Lipopolysaccharide-Mediated Inflammation in the THP-1 Cell Line” (Cureus, 2023)
No end group written: not given here.

System: THP-1 differentiated macrophage cell line
Test: Cytotoxicity evaluation of β-defensin 1 by MTT method
Assay type: cell-based, human
Settings: 24 h, 12.5-200 ng/mL
Method: The THP-1 cell line was cultured in DMEM and supplemented with 10% FBS, sodium bicarbonate, L-glutamine, and an antibiotic solution containing penicillin (100 U/mL), amphotericin B (2.5 µg/mL), and streptomycin (100 µg/mL). The cells were maintained in a 5% humidified CO2 incubator (NBS Eppendorf, Germany) at 37°C. To induce differentiation into macrophages, the THP-1 cell line was treated with 25 ng/mL phorbol 12-myristate 13-acetate (PMA) (cat. 91585, Sigma-Aldrich, USA) and incubated for 48 hours. Following incubation, the cells were seeded in a 96-well culture plate at a density of 5x10^4 cells/well and incubated for 24 hours in a humidified 5% CO2 incubator at 37°C.
Inverted phase contrast microscopy (IPCM) using an Olympus CKX41 microscope (Olympus, Japan) equipped with an Optika Pro5 CCD camera (Optika, Italy) was utilized to directly observe the cells. Cell viability was determined using the MTT (3-(4,5-Dimethylthiazol-2-yl)-2,5-diphenyltetrazolium bromide) assay (Sigma, M-5655). […] The absorbance of this colored solution can be quantified by measuring at approximately 570 nm using a spectrophotometer.
The whole plate was analyzed under a microscope with an IPCM, and the results were photographed. […] The purple formazan crystals were dissolved in dimethyl sulfoxide (DMSO) and the absorbance (OD) was measured at 570 nm using a microplate reader. […]

Substance: β-defensin 1: β-Defensin 1 peptide was purchased from ThermoFisher Scientific, USA; cationic antimicrobial peptide (DHYNCVSSGGQCLYSACPIFTKIQGTCYRGKAKCCK; ends and bridges not checked; cysteine pairing not given here; UniProt P60022 33-68, looked up)
- cytotoxicity (in words): dose-dependent cytotoxicity
